Key:
[1] = tested on: pheromone response pathway; assay: Yeast expression cloning system, growth assay; assay type: cell-based, Saccharomyces cerevisiae; details: for activity in the presence of Giα2 G204A mutant or RGS4: G204A Giα2 strain or RGS4 overexpression; for growth in yeast expression cloning system: Giα2 yeast strain, selective medium; for function in null Ste5 genetic background: yeast strain lacking Ste5
Text: (A) Three cDNA clones (#34, #37 and #53) were isolated from a screen of 1.1×10^6 yeast transformants based upon their ability to promote growth in a galactose-dependent manner in the yeast expression cloning system (5). B) Analysis of the cDNA clones in spot growth assays using yeast strains lacking STE20, STE5 or STE4. Control (Non-induced/no selection)—glucose media lacking uracil and tryptophan (UT). Non-induced/selection—glucose media lacking uracil/tryptophan/histidine (UTH) and containing the histidine analog aminotriazole (AT) at 1 mM. Induced/selection—galactose media lacking UTH and containing 1 mM AT. WT—wild type strain CY1316/1183. cDNA #34 was active in the absence of a functional STE5 and thus was not evaluated (black circles in key) in yeast strains lacking STE4 or STE20. For spot growth assays, ˜2,000 cells suspended in water were spotted on appropriate medium and the plates were incubated at 30° for 2 days prior to photography. Experiments in (A, B) were repeated three times with similar results.
(§1) (A) Bioactivity of cDNA #37 and 53 in yeast strains expressing different Gα subunits. The Gpa1, Giα2Gpa1(1-41), Giα3Gpa1(1-41) and Gα16Gpa1(1-41) yeast strains expressed similar amounts of G-protein as determined by immunoblotting with Gpa1-specific antisera. Each series of experiments include data obtained in the absence of Gα to indicate the signal obtained when the action of Gβγ is not limited by reformation of heterotrimer. Data are presented as the mean±S.E.M of three experiments with duplicate determinations. (B) Interaction of AGS2 and AGS3 with G-proteins. AGS2 and the bioactive AGS3 peptide (74 amino acids) beginning at the first in frame methionine were generated as GST-fusion proteins in bacteria and purified using a glutathione affinity matrix. AGS2 and AGS3 GST fusion proteins were incubated with G-protein subunits (Gα=60-80 nM, Gβγ=40 nM, fusion protein=˜300 nM, total volume=250 ul) for 12 hrs at 4° C. GDP=10 uM. GTPγS=10 uM plus 5 mM MgCl2. Proteins were then adsorbed to glutathione matrix and retained G-protein subunits identified by immunoblotting following gel electrophoresis. Giα2 was generated in Sf9 cells as an amino terminal his6-tagged protein and was detected on membrane transfers using anti-Xpress antisera (Invitrogen). Bovine brain Gβγ was detected on membrane transfers with Gβ antisera. Input refers to 20 ul of the incubation mixture. The results presented are representative of four separate experiments. […] C) Effect of G204A Giα2 substitution and RGS4 on the functionality of AGS proteins. The G204A Giα2 yeast strain and the system used for over expression of RGS4 are described in detail in reference 5. Protein expression was confirmed by immunoblotting. AGS 1 was discovered in a similar screen using a human liver cDNA library (5, 7). WT—wild type strain CY1316/1183 containing Giα2 as described for the original yeast screen. RGS4 was overexpressed in the CY1316/1183 yeast strain. Similar results were obtained in three experiments.
Generation and screening of cDNA libraries. The NG108-15 cell line was propagated as previously described (4). mRNA was prepared from twenty 100 mm confluent plates of cells and used to generate a cDNA library in the yeast expression vector pYES2. The library was constructed by standard procedures using reagents from Stratagene. Analysis of individual transformants indicated cDNA inserts ranging from 400 to 3000 nt with ˜70-80% of the transformants containing cDNA inserts. The primary transformants were then amplified by solid phase agarose growth for 48 hr and plasmid DNA isolated by column fractionation (Qiagen). The NG108-15 cDNA library was then screened for activators of the pheromone response pathway as described (5). We used a his3 far1 yeast strain containing a genomic integration of the FUS1p-HIS3 reporter construct and lacking both the native pheromone response receptor Ste3 and Gpa1 Gα subunit. […]

Giα2 = molecular target: T1, Giα2 (Homo sapiens, UniProt P04899); assay: GST fusion protein interaction with purified Giα2; assay type: binding; details: for interaction with Giα2: GST fusion protein ~300 nM, Gα 60-80 nM
T1 construct: made in house; host or cells: Sf9 insect cells
Text: as §1, with “Similar results were obtained in three experiments.” left out
(§2) Immunoblotting and G-protein interaction assays. […] Bound proteins were detected by immunoblotting membrane transfers with specific antisera. […]

brain Gβγ = assay: GST fusion protein interaction with purified brain Gβγ; assay type: binding, bovine; details: GST fusion protein ~300 nM, Gβγ 40 nM
Text: (A) Bioactivity of cDNA #37 and 53 in yeast strains expressing different Gα subunits. The Gpa1, Giα2Gpa1(1-41), Giα3Gpa1(1-41) and Gα16Gpa1(1-41) yeast strains expressed similar amounts of G-protein as determined by immunoblotting with Gpa1-specific antisera. Each series of experiments include data obtained in the absence of Gα to indicate the signal obtained when the action of Gβγ is not limited by reformation of heterotrimer. Data are presented as the mean±S.E.M of three experiments with duplicate determinations. (B) Interaction of AGS2 and AGS3 with G-proteins. AGS2 and the bioactive AGS3 peptide (74 amino acids) beginning at the first in frame methionine were generated as GST-fusion proteins in bacteria and purified using a glutathione affinity matrix. AGS2 and AGS3 GST fusion proteins were incubated with G-protein subunits (Gα=60-80 nM, Gβγ=40 nM, fusion protein=˜300 nM, total volume=250 ul) for 12 hrs at 4° C. GDP=10 uM. GTPγS=10 uM plus 5 mM MgCl2. […] Giα2 was generated in Sf9 cells as an amino terminal his6-tagged protein and was detected on membrane transfers using anti-Xpress antisera (Invitrogen). Bovine brain Gβγ was detected on membrane transfers with Gβ antisera. […]
as §2

T1 sequence (P04899 whole entry, the tested form may be a part): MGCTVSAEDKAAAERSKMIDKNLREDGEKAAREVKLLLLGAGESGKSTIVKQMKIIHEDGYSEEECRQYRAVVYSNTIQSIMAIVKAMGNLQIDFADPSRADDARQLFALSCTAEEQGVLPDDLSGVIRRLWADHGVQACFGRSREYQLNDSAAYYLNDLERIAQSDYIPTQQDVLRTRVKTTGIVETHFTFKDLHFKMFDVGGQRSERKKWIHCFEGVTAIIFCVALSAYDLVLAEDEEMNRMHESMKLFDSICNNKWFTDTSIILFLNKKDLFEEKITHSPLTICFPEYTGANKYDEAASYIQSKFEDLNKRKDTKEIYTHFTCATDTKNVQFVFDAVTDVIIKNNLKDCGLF

## AGS2: Activator of G-protein Signalling 2, protein identical to mouse Tctex1, isolated from NG108-15 cDNA library
[1]
  activity in the presence of Giα2 G204A mutant or RGS4: still active
  growth in yeast expression cloning system: promoted growth in a galactose-dependent manner
  function in null Ste5 genetic background: did not function
  activity in yeast strains lacking Ste20 or Ste4: inactive
Giα2
  interaction with Giα2: did not interact
Brain Gβγ
  interaction with brain Gβγ: directly bound

B1: AGS3: Activator of G-protein Signalling 3; bioactive 74 amino acid fragment isolated in yeast screen, tested as GST fusion (protein)
chain: MLIKYQSSRIDDQRCPPPDVLPRGPTMPDEDFFSLIQRVQAKRMDEQRVDLAGSPDQEASGLPDPRQQCPPGAS
modifications: left off: a dimerising Fc or GST
[1]
  activity in the presence of Giα2 G204A mutant or RGS4: still active
  growth in yeast expression cloning system: promoted growth in a galactose-dependent manner
  function in null Ste5 genetic background: did not function
  activity in yeast strains lacking Ste20 or Ste4: inactive
Giα2; GDP 10 uM versus GTPγS 10 uM
  preferred nucleotide-bound conformation of Gα: preferred the GDP bound conformation
Giα2
  interaction with Giα2: specifically bound
Brain Gβγ
  interaction with brain Gβγ: did not interact
